Results published in patent publication US20190002548A1 (Chugai, published 2019).
Numbering of substitutions follows the chain as printed. Numbers in names are those of the source. Like-named read-outs stand apart in the source and are kept apart here.

Experiments:
[1] = molecular target: T1, Human mature myostatin (myostatin mature form; recombinant mature myostatin) (human (mature form 100% identical in …, UniProt O08689 268-376 (mouse entry), biotinylated in the Biacore assay (immobilized on a streptavidin chip); not labelled in the HEK Blue Assay); assay: SPR, Biacore T200, 37 degrees C; biotinylated mature myostatin on streptavidin chip, 100 nM antibody bound at pH 7.4; dissociation phase at pH 7.4
T1 construct: Disulfide-bonded homodimer of the C-terminal growth factor domain, purified from latent myostatin expressed in FreeStyle293-F cells; also called GDF-8 mature form; C-terminal growth factor domain of human myostatin
T1 sequence: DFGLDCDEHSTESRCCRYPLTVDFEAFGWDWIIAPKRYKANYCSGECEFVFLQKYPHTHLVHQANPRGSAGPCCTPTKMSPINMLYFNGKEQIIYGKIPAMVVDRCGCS
Procedure: (§1) pH dependent binding of MST0226 variants to human mature myostatin were determined at 37 degrees C. using Biacore T200 instrument (GE Healthcare). Biotinylated mature myostatin was immobilized onto streptavidin sensor chip (GE Healthcare). In order to assess pH dependent binding of MST0226 variants to mature myostatin, 100 nM of antibodies were injected over mature myostatin sensor surface at pH 7.4 (20 mM ACES, 150 mM NaCl, 1.2 mM CaCl₂), 0.05% Tween 20, 0.005% NaN₃), followed by dissociation at pH 7.4 and an additional dissociation phase at pH5.8. This is to assess the pH-dependent dissociation of antibody/antigen complexes formed at pH 7.4. The dissociation rate (kd) at both pH 7.4 and pH 5.8 buffer was determined by processing and fitting data using Scrubber 2.0 (BioLogic Software) curve fitting software. The ratio of (kd at pH5.8)/(kd at pH 7.4) gives indication of pH dependent binding, e.g. ratio>1 indicates pH dependent binding. The sensor surface was regenerated each cycle with 10 mM Glycine-HCl, pH 1.7.

[2] = molecular target: T1, Human mature myostatin (myostatin …); assay: SPR (Biacore T200, 37 degrees C), biotinylated mature myostatin on streptavidin chip, 100 nM antibody, dissociation at pH 7.4 then pH 5.8
Procedure: as §1

[3] = molecular target: T1, Human mature myostatin (myostatin …); assay: SPR, Biacore T200, 37 degrees C; biotinylated mature myostatin on streptavidin chip; ratio of dissociation rates
Procedure: as §1

[4] = molecular target: T1, Human mature myostatin (myostatin …); assay: SPR, Biacore T200, 37 degrees C; biotinylated mature myostatin on streptavidin chip, 100 nM antibody bound at pH 7.4; dissociation phase at pH 5.8
Procedure: as §1

[5] = molecular target: T1, Human mature myostatin (myostatin …); assay: cell-based or functional assay
[6] = molecular target: T1, Human mature myostatin (myostatin …); assay: cell-based or functional assay; remark: listed apart in the source

B1: MS_M22601H1020-SG1/M22608L0744-SK1 (antibody, human IgG1, kappa, V domains shown)
VH: EVQLVESGGGLVQPGGSLRLSCAVSGFTLSHYVKGWVRQAPGKGLEWIGIINISGSTYYASWAKGRFTISRDNSKNTVYLQMNSLRAEDTAVYFCARGHDNFGYSYHDFNLWGQGTLVTVSS
VL: AVVMTQSPATLSLSPGERVTLSCQASQSIHHELSWYQQKPGQPPKLLIYLASTLASGVPSRFKGSGSGTDFTLTISSLQPEDAATYYCQTYDGISHYGVAFGQGTKVEIKR
notes: pH-dependent variant of MSLO00-SG1; also called MSLO01-SG1; LO01-SG1
koff [1]: 0.000131 s⁻¹ | ratio of (kd at pH5.8)/(kd at pH 7.4) [2]: 17 | Ratio of (kd pH 5.8)/(kd pH 7.4) [3]: 17.4 | koff [4]: 0.00228 s⁻¹

B2: MS_M22601H1080-SG1/M22608L0837-SK1 (antibody, human IgG1, kappa, V domains shown)
VH: B1 VH with S54E, K64E
VL: B1 VL with Q27E
notes: pH-dependent variant of MSLO00-SG1; also called MSLO02-SG1; LO02-SG1
koff [1]: 9.7e-05 s⁻¹ | ratio of (kd at pH5.8)/(kd at pH 7.4) [2]: 17 | Ratio of (kd pH 5.8)/(kd pH 7.4) [3]: 26.2 | koff [4]: 0.00254 s⁻¹

B3: MS_M22601H1080-SG1/M22608L0846-SK1 (antibody, human IgG1, kappa, V domains shown)
VH: B1 VH with S54E, K64E
VL: B1 VL with E32D
notes: pH-dependent variant of MSLO00-SG1; also called MSLO04-SG1; LO04-SG1
koff [1]: 4.19e-05 s⁻¹ | ratio of (kd at pH5.8)/(kd at pH 7.4) [2]: 17 | IC50 (read off the curve); HEK Blue Assay (SEAP reporter, OD620) [5]: ~6 ng/mL | Ratio of (kd pH 5.8)/(kd pH 7.4) [3]: 25.9 | koff [4]: 0.00109 s⁻¹

B4: MS_M22601H1082-SG1/M22608L0837-SK1 (antibody, human IgG1, kappa, V domains shown)
VH: B1 VH with S54E, S56E
VL: B1 VL with Q27E
notes: pH-dependent variant of MSLO00-SG1; also called MSLO03-SG1; LO03-SG1
koff [1]: 0.00012 s⁻¹ | ratio of (kd at pH5.8)/(kd at pH 7.4) [2]: 17 | Ratio of (kd pH 5.8)/(kd pH 7.4) [3]: 26.8 | koff [4]: 0.00321 s⁻¹

B5: MS_M22601H-SG1/M22608L-SK1 (antibody, human IgG1, kappa, V domains shown)
VH: B1 VH with H31N, K34M, H99G, H107I
VL: B1 VL with H30S, H31N, H96S
notes: Humanized form of MST0226-G1m; the non pH-dependent antibody; also called MSLO00-SG1; LO00-SG1
koff [1]: 7.82e-05 s⁻¹ | Ratio of (kd pH 5.8)/(kd pH 7.4) [3]: 0.8 | koff [4]: 6.04e-05 s⁻¹

B6: MS_MST0095Hf-G1m/MST0095Lf-kOMTC (antibody, human IgG1, kappa, V domains shown)
VH: QSVEESGGRLVTPGTPLTLTCTASGFSLSSYYMSWVRQAPGKGLEWIGIISSRGSTYYASWAKGRFTISKTSTTVDLKITSPTTEDTATYFCARGVVLWGPGTLVTVSS
VL: ALVMTQTPASVSAAVGGTVTINCQASESIYSGLAWYQQKPGQPPKLLIYSASTLASGVPSRFRGSGSGTEYTLTINDLECADAATYYCQAYDSTNWTFGGGTEVVVKR
IC50 (read off the curve); HEK Blue Assay (SEAP reporter, OD620) [6]: ~4 ng/mL

B7: MS_MST0226Hc-G1m/MST0226La-kOMTC (antibody, human IgG1, kappa, V domains shown)
VH: QSVEESGGRLVTPGGSLTLTCTVSGFSLSNYVMGWVRQAPGKGLEWIGIINISGSTYYASWAKGRFTISRTSTTVDLKMTSLTTEDTATYFCARGGDNFGYSYIDFNLWGPGTLVTVSS
VL: AVVMTQTPASVSEPVGGTVTIKCQASQSISNELSWYRQKPGQPPKLLIYLASTLASGVPSRFKGSGSGTDFTLTISDLECADAATYYCQTYDGISSYGVAFGGGTKVVVER
IC50 (read off the curve); HEK Blue Assay (SEAP reporter, OD620) [6]: ~7 ng/mL
